B1: M-Cadherin (endogenous protein of C2C12 myotubes) (other, UniProt P33146 60-784, looked up)
chain: LPYPLVQIKSDKQQLGSVIYSIQGPGVDEEPRNVFSIDKFTGRVYLNATLDREKTDRFRLRAFALDLGGSTLEDPTDLEIVVVDQNDNRPAFLQDVFRGRILEGAIPGTFVTRAEATDADDPETDNAALRFSILEQGSPEFFSIDEHTGEIRTVQVGLDREVVAVYNLTLQVADMSGDGLTATASAIISIDDINDNAPEFTKDEFFMEAAEAVSGVDVGRLEVEDKDLPGSPNWVARFTILEGDPDGQFKIYTDPKTNEGVLSVVKPLDYESREQYELRVSVQNEAPLQAAAPRARRGQTRVSVWVQDTNEAPVFPENPLRTSIAEGAPPGTSVATFSARDPDTEQLQRISYSKDYDPEDWLQVDGATGRIQTQRVLSPASPFLKDGWYRAIILALDNAIPPSTATGTLSIEILEVNDHAPALALPPSGSLCSEPDQGPGLLLGATDEDLPPHGAPFHFQLNPRVPDLGRNWSVSQINVSHARLRLRHQVSEGLHRLSLLLQDSGEPPQQREQTLNVTVCRCGSDGTCLPGAAALRGGGVGVSLGALVIVLASTVVLLVLILLAALRTRFRGHSRGKSLLHGLQEDLRDNILNYDEQGGGEEDQDAYDINQLRHPVEPRATSRSLGRPPLRRDAPFSYVPQPHRVLPTSPSDIANFISDGLEAADSDPSVPPYDTALIYDYEGDGSVAGTLSSILSSLGDEDQDYDYLRDWGPRFARLADMYGHQ

The target in series [1] is T1, β-Catenin (endogenous protein of C2C12 myotubes) (UniProt Q02248 2-781).
T1 construct: also called 13-Catenin
T1 sequence (looked up): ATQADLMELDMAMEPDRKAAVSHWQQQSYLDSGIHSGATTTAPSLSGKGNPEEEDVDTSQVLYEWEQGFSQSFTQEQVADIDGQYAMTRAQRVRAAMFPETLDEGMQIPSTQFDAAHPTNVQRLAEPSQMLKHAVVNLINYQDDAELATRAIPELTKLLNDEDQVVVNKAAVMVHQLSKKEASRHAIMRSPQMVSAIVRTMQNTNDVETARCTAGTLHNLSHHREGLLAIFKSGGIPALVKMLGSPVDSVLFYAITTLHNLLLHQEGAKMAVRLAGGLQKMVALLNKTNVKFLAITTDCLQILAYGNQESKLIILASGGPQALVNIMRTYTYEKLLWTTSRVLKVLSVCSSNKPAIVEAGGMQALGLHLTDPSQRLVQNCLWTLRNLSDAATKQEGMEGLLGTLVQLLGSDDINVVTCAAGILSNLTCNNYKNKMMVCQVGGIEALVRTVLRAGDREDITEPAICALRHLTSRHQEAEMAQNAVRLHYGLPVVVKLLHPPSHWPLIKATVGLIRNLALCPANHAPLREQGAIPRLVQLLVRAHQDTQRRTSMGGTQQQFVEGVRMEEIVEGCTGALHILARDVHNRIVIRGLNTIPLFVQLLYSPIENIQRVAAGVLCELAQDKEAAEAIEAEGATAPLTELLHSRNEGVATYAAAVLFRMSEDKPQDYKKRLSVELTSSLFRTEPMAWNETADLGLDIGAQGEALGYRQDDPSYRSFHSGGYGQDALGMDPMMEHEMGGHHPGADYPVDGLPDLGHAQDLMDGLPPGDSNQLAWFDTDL
Put plainly: immunoprecipitation from myotubes treated with Si-Control or Si-TRIM72 (FIG. 12F).

The target in series [2] is T2, IRS-1 (endogenous protein of C2C12 cells) (UniProt P35569 1-1233).
T2 construct: also called insulin receptor substrate-1
T2 sequence (looked up): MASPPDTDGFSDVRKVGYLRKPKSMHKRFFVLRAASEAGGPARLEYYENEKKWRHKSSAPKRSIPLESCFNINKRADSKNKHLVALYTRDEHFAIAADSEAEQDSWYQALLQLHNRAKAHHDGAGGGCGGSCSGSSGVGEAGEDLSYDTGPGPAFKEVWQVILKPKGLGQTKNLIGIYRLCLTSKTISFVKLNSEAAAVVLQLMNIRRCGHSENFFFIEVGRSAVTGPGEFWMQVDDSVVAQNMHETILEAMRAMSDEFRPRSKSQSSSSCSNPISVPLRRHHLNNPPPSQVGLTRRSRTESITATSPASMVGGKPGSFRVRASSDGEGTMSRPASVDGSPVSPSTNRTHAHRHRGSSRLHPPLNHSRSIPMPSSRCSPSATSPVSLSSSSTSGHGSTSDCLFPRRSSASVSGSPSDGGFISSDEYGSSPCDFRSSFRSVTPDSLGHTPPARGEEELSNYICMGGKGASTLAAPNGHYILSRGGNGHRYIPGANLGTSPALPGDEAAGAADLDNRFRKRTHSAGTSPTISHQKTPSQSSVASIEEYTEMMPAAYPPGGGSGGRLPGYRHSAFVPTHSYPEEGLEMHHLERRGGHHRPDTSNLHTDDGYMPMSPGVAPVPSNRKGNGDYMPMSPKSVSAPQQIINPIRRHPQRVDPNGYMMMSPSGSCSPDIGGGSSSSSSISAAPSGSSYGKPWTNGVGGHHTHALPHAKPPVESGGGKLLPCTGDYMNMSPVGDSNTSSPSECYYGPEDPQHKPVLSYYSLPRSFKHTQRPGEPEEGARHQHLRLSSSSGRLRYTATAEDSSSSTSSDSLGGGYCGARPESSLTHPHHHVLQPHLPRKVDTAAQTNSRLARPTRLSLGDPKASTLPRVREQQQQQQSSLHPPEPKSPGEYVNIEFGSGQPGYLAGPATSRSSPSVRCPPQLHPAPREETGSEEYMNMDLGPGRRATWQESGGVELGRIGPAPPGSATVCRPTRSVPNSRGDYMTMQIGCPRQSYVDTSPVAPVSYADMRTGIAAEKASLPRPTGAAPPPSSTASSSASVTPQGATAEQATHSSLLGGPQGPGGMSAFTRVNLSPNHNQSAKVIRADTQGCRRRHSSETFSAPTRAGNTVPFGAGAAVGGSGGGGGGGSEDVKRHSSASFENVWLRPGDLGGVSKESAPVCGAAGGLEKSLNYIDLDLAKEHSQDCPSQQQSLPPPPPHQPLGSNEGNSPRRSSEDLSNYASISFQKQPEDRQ
As to the kind of experiment: endogenous immunoprecipitation in C2C12 myotubes treated with IGF-I for 0, 5 and 30 minutes (FIG. 9A). On the procedure:
Western blotting and immunostaining were performed as described in Kim, K. B. et al. Proteomics 6, 2444-53 (2006). For immunoprecipitation, cells were lysed in buffer containing 20 mM Tris-HCl pH 7.4, 137 mM NaCl, 1 mM MgCl₂, 1 mM CaCl₂, 20 mM NaF, 10 mM Na₄P₂O₇, 1% NP-40, 1 mM Na₃VO₄, 1 mM PMSF and protease inhibitor cocktail (Roche). The whole cell lysates (600 μg protein) were incubated with specific antibodies for 90 min and then with 50 μl of Protein A-sepharose or G-agarose bead (50%) slurry for 1 h. The immunoprecipitates were analyzed by Western blotting.
Next, the effect of TRIM72 on IGF-1-induced tyrosine phosphorylation of IGFR and IRS-1 was investigated. The tyrosine phosphorylation of IGFR induced by IGF-I was not changed by TRIM72 overexpression or knockdown (FIG. 8). […] Moreover, the molecular association of IRS-1 with PI3K after IGF-I stimulation was weakened by TRIM72 overexpression, but fortified by TRIM72 knockdown. […] In order to analyze the binding domains of TRIM72 and IRS-1, various mutants of both genes were manufactured (FIG. 9B) and transfected into 293 cells. Then, the binding activity was investigated by immunoprecipitation. […] It should be noted that the 293 cells were treated with MG132 (proteasome inhibitor) after transferring IRS-1 and TRIM72.

The target of series [3] is B1. As to the kind of experiment: immunoprecipitation of myotube protein with TRIM72 antibody or M-Cadherin antibody (FIGS. 12G and 12H).
Series [4] deals with T3, M-Cadherin (endogenous protein of C2C12 myotubes), P33146.
T3 chain: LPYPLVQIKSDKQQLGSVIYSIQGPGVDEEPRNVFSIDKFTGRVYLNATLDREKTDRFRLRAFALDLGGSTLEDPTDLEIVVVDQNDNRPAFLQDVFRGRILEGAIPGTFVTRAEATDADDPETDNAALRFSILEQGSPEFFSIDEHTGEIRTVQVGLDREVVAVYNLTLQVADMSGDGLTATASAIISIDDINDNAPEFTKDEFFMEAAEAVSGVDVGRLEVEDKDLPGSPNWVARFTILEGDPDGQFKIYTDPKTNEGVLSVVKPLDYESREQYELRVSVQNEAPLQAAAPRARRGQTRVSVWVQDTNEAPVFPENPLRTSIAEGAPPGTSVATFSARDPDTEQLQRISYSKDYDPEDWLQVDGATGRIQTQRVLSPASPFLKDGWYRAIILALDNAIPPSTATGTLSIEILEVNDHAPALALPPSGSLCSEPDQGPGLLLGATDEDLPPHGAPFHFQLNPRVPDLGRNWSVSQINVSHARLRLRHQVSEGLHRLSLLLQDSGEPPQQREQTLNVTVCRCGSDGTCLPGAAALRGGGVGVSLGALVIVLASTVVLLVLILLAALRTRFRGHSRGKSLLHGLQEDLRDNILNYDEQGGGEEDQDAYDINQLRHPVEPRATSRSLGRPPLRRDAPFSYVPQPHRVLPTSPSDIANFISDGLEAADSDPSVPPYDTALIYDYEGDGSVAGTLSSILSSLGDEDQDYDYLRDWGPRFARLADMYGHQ

Series [5] addresses T4, IRS-1 (endogenous protein of C2C12 cells), P35569.
T4 chain: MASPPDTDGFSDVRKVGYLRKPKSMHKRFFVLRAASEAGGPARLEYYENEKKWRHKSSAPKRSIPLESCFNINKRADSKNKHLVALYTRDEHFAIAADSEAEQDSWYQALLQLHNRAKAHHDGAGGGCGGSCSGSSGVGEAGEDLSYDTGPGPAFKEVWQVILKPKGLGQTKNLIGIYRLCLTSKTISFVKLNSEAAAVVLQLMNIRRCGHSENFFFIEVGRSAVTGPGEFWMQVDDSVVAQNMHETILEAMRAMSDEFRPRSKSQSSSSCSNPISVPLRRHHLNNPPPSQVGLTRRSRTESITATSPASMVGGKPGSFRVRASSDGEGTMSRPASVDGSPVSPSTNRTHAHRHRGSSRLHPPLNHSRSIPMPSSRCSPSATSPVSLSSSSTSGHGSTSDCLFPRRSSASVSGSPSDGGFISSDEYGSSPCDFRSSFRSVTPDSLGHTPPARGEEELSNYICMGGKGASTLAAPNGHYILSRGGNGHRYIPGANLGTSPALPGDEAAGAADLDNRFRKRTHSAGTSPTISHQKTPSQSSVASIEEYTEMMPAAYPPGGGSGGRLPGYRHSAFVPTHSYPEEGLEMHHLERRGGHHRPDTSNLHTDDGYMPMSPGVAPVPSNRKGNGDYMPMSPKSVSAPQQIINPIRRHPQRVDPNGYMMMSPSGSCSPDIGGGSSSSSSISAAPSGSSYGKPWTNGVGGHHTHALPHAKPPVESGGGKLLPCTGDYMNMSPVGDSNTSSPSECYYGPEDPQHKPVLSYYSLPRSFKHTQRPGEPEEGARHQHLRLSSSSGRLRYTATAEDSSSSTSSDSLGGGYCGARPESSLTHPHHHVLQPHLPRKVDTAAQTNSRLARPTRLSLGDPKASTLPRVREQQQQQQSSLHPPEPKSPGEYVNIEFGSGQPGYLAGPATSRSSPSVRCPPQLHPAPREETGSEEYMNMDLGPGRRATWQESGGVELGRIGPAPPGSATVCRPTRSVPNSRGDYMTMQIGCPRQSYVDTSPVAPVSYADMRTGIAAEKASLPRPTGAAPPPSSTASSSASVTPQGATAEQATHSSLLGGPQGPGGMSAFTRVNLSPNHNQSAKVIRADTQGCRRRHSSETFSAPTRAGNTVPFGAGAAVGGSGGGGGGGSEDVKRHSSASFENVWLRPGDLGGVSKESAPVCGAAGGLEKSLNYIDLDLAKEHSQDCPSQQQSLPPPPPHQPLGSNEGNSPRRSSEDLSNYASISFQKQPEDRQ

Consider B1, for which the binding result in series [1] was “binds”.

B2: TRIM72 (endogenous protein of C2C12 myotubes) (enzyme)
chain: MSAAPGLLRQELSCPLCLQLFDAPVTAECGHSFCRACLIRVAGEPAADGTVACPCCQAPTRPQALSTNLQLSRLVEGLAQVPQGHCEEHLDPLSIYCEQDRTLVCGVCASLGSHRGHRLLPAAEAQARLKTQLPQQKMQLQEACMRKEKTVAVLEHQLVEVEETVRQFRGAVGEQLGKMRMFLAALESSLDREAERVRGDAGVALRRELSSLNSYLEQLRQMEKVLEEVADKPQTEFLMKFCLVTSRLQKILSESPPPARLDIQLPVISDDFKFQVWKKMFRALMPALEELTFDPSSAHPSLVVSSSGRRVECSDQKAPPAGEDTRQFDKAVAVVAQQLLSQGEHYWEVEVGDKPRWALGVMAADASRRGRLHAVPSQGLWLLGLRDGKILEAHVEAKEPRALRTPERPPARIGLYLSFADGVLAFYDASNPDVLTPIFSFHERLPGPVYPIFDVCWHDKGKNAQPLLLVGPEQEQA
notes: Endogenous protein in lysates of C2C12 myotubes; also called tripartite motif-containing 72
Regarding B2, the binding result in series [2] was “binds”. The binding result in series [3] is “binds”. Further, the “ubiquitination of M-Cadherin in myotubes with reduced TRIM72” value in series [4] is on record as “Si-Control treated cells showed stained band (which denotes ubiquitination), whereas Si-TRIM72-treated cells did not”. Moreover, in series [5], the “molecular association of IRS-1 with PI3K after IGF-I stimulation” value is “the molecular association of IRS-1 with PI3K after IGF-I stimulation was weakened by TRIM72 overexpression, but fortified by TRIM72 knockdown” and the “tyrosine phosphorylation of IRS-1 induced by IGF-I” value is “the tyrosine phosphorylation of IRS-1 was decreased by TRIM72 overexpression, but increased by TRIM72 knockdown”.

The record behind these values is US20110251256A1 (KOREA UNIVERSITY INDUSTRIAL AND ACADEMIC COLLABORATIVE …, published 2011).
